Source: patent US11981943B2, “Methods and composition for detecting CAPN5” (UNIVERSITY OF IOWA RESEARCH FOUNDATION, priority 2016, dated 2024)
Entries after “also recorded” stand apart in the source; their conditions may differ. One block for each compound: values may come before it.

What was measured:
Assay type in all cases: biochemical
CAPN1 WT [1] = target: T1, CAPN1 WT (Homo sapiens, UniProt P07384); experiment: FRET peptide proteolysis assay with CAPN1; details: calpain activity buffer, 37° C.
T1 sequence (P07384 1-714): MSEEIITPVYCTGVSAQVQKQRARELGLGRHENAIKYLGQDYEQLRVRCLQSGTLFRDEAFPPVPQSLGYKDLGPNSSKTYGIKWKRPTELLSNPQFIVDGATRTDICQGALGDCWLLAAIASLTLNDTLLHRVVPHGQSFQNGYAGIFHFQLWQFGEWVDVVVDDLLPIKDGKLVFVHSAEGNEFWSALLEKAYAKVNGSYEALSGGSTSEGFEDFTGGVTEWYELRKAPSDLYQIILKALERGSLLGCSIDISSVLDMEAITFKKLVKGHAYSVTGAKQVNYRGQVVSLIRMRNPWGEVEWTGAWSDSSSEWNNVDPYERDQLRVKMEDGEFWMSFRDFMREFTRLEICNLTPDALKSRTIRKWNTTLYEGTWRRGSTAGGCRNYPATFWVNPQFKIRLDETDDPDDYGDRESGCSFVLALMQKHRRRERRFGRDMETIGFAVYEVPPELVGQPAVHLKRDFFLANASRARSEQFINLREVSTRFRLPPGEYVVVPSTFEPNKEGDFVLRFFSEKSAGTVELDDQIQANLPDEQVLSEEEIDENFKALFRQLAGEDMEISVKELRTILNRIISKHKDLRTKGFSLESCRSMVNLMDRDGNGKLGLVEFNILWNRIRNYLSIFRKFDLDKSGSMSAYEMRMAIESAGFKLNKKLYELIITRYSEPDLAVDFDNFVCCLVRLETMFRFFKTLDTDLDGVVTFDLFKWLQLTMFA
Protocol: (§1) Peptides were incubated in calpain activity buffer, and the solution was brought to 37° C. Calpain was added and fluorescence was measured. The fluorescence measured for the lead peptide, CAPN5p370-380, was plotted and lines were fit using the following substrate inhibition equation, Y=Vmax*X/(Km+X*(1+X/Ki)). […] The fluorescence measure for a previously published calpain-1 peptide, EPLFAERK (SEQ ID NO: 22), was plotted and lines were fit using the following Michaelis-Menten equation, Y=Vmax*X/(Km+X) (FIG. 13B). […] Kinetics data from the Michaelis-Menten and substrate inhibition equations are shown in a table (FIG. 13C).
CAPN5 specifically targets a peptide corresponding to its own autocatalytic site and not homologous regions in other calpains. […] Peptides corresponding to the homologous regions of the CAPN5 autoprotolysis site in other calpain family members were incubated with CAPN5 protease. […] Peptides tested in FIG. 14B were incubated with CAPN1. […] Kinetics data from the Michaelis-Menten and substrate inhibitions equations are shown in a table (FIG. 14D).

CAPN5 WT [2] = target: T2, CAPN5 WT (Homo sapiens, UniProt O15484); experiment: FRET peptide proteolysis assay with CAPN5-WT; design: MBP (N); details: for proteolysis of peptide substrate by CAPN5-WT (fluorescence): FRET peptide, calpain activity buffer, 37° C.
Protocol: (§2) FIG. 2. Diagram of Assay. 10 uM of FRET substrates were added to a solution containing 2 mM DTT, 5 uM Calcium, and CAPN5 Buffer (20 mM Tris, 300 mM NaCl, pH 7.5) to a volume of 100 uL. The solution was pipetted into a 96 well plate in wells that contained 24 uM of CAPN5-WT, CAPN5-R243L, or no CAPN5. The fluorescence of each well was measured using a Tecan Infinite M200 Pro plate reader.
(§3) Peptide substrates dissolved in DMSO and H2O were incubated with WT CAPN5 at 37° C. in the presence or absence of calcium until a change in fluorescence was no longer detected. […] As expected, R243LCAPN5 (hyperactive) cleaved substrate fragments at a higher rate (FIG. 4). Inhibitor peptides were identified that serve as the lead compounds for optimization.
Proteolytic kinetics of CAPN5 is influenced by peptide length near its autoproteolytic site. Peptides substrates that were 7, 11, and 21 amino acids long were incubated in calpain activity buffer. The solution was brought to 37° C. CAPN5 was then added and fluorescence was measured. […] The kinetics data from the Michaelis-Menten and substrate inhibition equations are shown in a table (FIG. 12D).
as §1
Scanning modifications were made to the amino acids of the lead compound to make the bonds un-cleavable by CAPN5 (FIG. 18B). Despite modifications, the peptide still fit in the catalytic groove using docking predictions. N-terminal (EDANS) and C-terminal GLU-(DABCYL) FRET tags were added to the peptides for our standard CAPN5 assay and were dissolved in 70% DMSO (FIG. 18C). Peptides incubated for 15 minutes at various concentrations with 5 μg of MBP-CAPN5 WT. Modification of the amino acids slows the reaction rate. Data is plotted as initial velocity (uM/sec) versus peptide concentration fit to the substrate inhibition equation (FIG. 18D).
The CAPN5-370-80 peptide was modified (FIGS. 19A-19G) and the activity was evaluated (FIGS. 20A-20D). Scanning modifications were made to the amino acids of the peptide to make the bonds un-cleavable by CAPN5. The location of the modifications are denoted with circles N-terminal (EDANS) and C-terminal GLU-(DABCYL) FRET tags were added to the peptides for the standard CAPN5 assay and were dissolved in 70% DMSO. Peptides incubated for 15 minutes at various concentrations with 5 μg of MBP-CAPN5 WT in a buffer containing 20 mM Tris, 300 mM NaCl, 2 mM DTT, pH 7.5 to measure activity (FIG. 20C). Data is plotted as initial velocity (uM/sec) versus peptide concentration. Modification of the amino acids slows the reaction rate.

CAPN5-R243L = CAPN5-R243L (Homo sapiens, UniProt O15484, R243L); experiment: FRET peptide proteolysis assay with CAPN5-R243L; details: hyperactive R243L mutant
Protocol: as §2, §3

CAPN5 WT [3] = target: T2, CAPN5 WT; experiment: Inhibition of CAPN5 WT proteolysis of CAPN5p.370-80 substrate; details: for effect of increasing substrate concentration on inhibition of CAPN5: increasing concentrations of CAPN5 p.370-80 substrate, with and without inhibitor
Protocol: (§4) FIG. 15A: Various concentrations of SNJ-1945 were incubated in a reaction with 50 μM EPLFAERK (SEQ ID NO: 22) (a CAPN1 substrate) and CAPN1 WT in activity. Data is plotted for CAPN1 as initial velocity (μM/sec) versus SNJ-1945 concentration. Addition of 1 μM SNJ-1945 slows the initial reaction rate by 100%. FIG. 15B: CAPN1 WT was incubated with and without SNJ-1945 at increasing concentrations of EPLFAERK substrate (SEQ ID NO: 22). Data is plotted for CAPN1 as initial velocity (μM/sec) versus substrate concentration. FIG. 15C: Various concentrations of SNJ-1945 were incubated in a reaction with CAPN5p.370-80 and CAPN5 WT in an activity buffer. Data is plotted for CAPN5 as initial velocity (μM/sec) versus SNJ-1945 concentration. Only after addition of 100 μM SNJ-1945 did the initial reaction rate slow to 100%. FIG. 15D: CAPN5 WT was incubated with and without SNJ-1945 at increasing concentrations of CAPN5 p.370-80 substrate. Data is plotted for CAPN5 as initial velocity (μM/sec) versus substrate concentration.
FIGS. 16A-16B. […] First generation lead compound CAPN5 p.370-80 was modified using amide cyclization to generate a second generation competitive cyclic inhibitor. (FIG. 16A) Various concentrations of Cyclic CAPN5 p.370-80 were incubated in a reaction with CAPN5p.370-80 and CAPN5 WT in an activity buffer. Data is plotted for CAPN5 as initial velocity (μM/sec) versus Cyclic CAPN5 p.370-80 concentration. Addition of 10 μM Cyclic CAPN5 p.370-80 slows the initial reaction rate by 40%. (FIG. 16B) CAPN5 WT was incubated with and without 10 μM Cyclic CAPN5 p.370-80 at increasing concentrations of CAPN5 p.370-80 substrate. Data is plotted for CAPN5 as initial velocity (μM/sec) versus substrate concentration.
Various concentrations of SNJ-1945 were incubated in a reaction with 50 μM EPLFAERK (a CAPN1 substrate) (SEQ ID NO: 22) and CAPN1 WT in activity. Addition of 1 μM SNJ-1945 slows the initial reaction rate by 100% (FIG. 15A). CAPN1 WT was incubated with and without SNJ-1945 at increasing concentrations of EPLFAERK substrate (SEQ ID NO: 22) (FIG. 15B). Various concentrations of SNJ-1945 were incubated in a reaction with CAPN5p.370-80 and CAPN5 WT in an activity buffer. Only after addition of 100 μM SNJ-1945 did the initial reaction rate slow to 100% (FIG. 15C). CAPN5 WT was incubated with and without SNJ-1945 at increasing concentrations of CAPN5 p.370-80 substrate (FIG. 15D).
First generation lead compound CAPN5 p.370-80 was modified using amide cyclization to generate a second generation competitive cyclic inhibitor. Various concentrations of Cyclic CAPN5 p.370-80 were incubated in a reaction with CAPN5p.370-80 and CAPN5 WT in an activity buffer. Addition of 10 μM Cyclic CAPN5 p.370-80 slows the initial reaction rate by 40% (FIG. 16A). CAPN5 WT was incubated with and without 10 μM Cyclic CAPN5 p.370-80 at increasing concentrations of CAPN5 p.370-80 substrate.

CAPN1 WT [4] = target: T1, CAPN1 WT; experiment: Inhibition of CAPN1 WT proteolysis of EPLFAERK substrate
Protocol: as §4
Various concentrations of SNJ-1945 were incubated in a reaction with 50 μM EPLFAERK (a CAPN1 substrate) (SEQ ID NO: 22) and CAPN1 WT in activity. Addition of 1 μM SNJ-1945 slows the initial reaction rate by 100% (FIG. 15A). CAPN1 WT was incubated with and without SNJ-1945 at increasing concentrations of EPLFAERK substrate (SEQ ID NO: 22) (FIG. 15B). […]

T2 sequence (O15484 whole entry): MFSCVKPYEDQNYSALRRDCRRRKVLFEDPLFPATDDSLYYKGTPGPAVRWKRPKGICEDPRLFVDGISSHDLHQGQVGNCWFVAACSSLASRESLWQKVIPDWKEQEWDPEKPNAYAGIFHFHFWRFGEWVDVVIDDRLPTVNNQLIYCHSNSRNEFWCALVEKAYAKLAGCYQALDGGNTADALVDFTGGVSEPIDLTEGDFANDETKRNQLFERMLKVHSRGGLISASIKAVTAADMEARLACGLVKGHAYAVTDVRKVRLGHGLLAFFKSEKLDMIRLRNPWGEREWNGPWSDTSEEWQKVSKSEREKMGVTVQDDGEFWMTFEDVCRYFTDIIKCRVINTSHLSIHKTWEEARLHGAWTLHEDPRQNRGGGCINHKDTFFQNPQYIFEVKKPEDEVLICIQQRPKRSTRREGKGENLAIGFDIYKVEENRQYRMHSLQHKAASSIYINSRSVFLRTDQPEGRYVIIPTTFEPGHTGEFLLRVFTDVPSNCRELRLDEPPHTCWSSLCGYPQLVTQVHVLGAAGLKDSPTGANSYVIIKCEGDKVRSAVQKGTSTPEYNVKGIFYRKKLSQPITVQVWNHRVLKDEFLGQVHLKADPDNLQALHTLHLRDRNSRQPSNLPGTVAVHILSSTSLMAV
Sequence of CAPN5-R243L (O15484 whole entry R243L): as the sequence (O15484 whole entry) above, with R243L counted along it

Compound: EPLFAERK [reference compound]
proteolysis of peptide substrate by CAPN1 (fluorescence) (CAPN1 WT [1]): specific to CAPN1; also recorded: high proteolysis
proteolysis of peptide substrate by CAPN5-WT (fluorescence) (CAPN5 WT [2]): not proteolyzed by CAPN5; also recorded: very limited proteolysis

Compound: RQNRGGGCINH (listed as Homo sapiens) [CAPN5-370-380]
proteolysis of peptide substrate by CAPN1 (fluorescence) (CAPN1 WT [1]; listed as CAPN5 (370-380)): not proteolyzed by CAPN1
proteolysis of peptide substrate by CAPN1 (fluorescence) (CAPN1 WT [1]; listed as CAPN5p370-380): very limited proteolysis
proteolysis of peptide substrate by CAPN5-WT (fluorescence) (CAPN5 WT [2]): most sensitive to cleavage
proteolysis of peptide substrate by CAPN5-WT (fluorescence) (CAPN5 WT [2]; listed as 11 aa peptide): rapid and high cleavage
proteolysis of peptide substrate by CAPN5-WT (fluorescence) (CAPN5 WT [2]; listed as CAPN5 (370-380)): specific to CAPN5
proteolysis of peptide substrate by CAPN5-WT (fluorescence) (CAPN5 WT [2]; listed as CAPN5 (p370-380)): greatest fluorescent intensity
proteolysis of peptide substrate by CAPN5-WT (fluorescence) (CAPN5 WT [2]; listed as CAPN5p370-380): high proteolysis
proteolysis of peptide substrate by CAPN5-R243L (fluorescence) (CAPN5-R243L): most sensitive to cleavage
proteolysis of peptide substrate by CAPN5-R243L (fluorescence) (CAPN5-R243L; listed as CAPN5 (370-380)): greatest fluorescent intensity

Compound: COCCOCCOC(=O)N[C@@H](CC(C)C)C(=O)N[C@@H](Cc1ccccc1)C(=O)C(=O)NC1CC1 [SNJ-1945]
inhibition of CAPN5 (in words) (CAPN5 WT [3]): not a good inhibitor of CAPN5
slowing of initial reaction rate of CAPN5 (CAPN5 WT [3]; 100 μM SNJ-1945, CAPN5p.370-80 substrate): 100%
effect of increasing substrate concentration on inhibition of CAPN5 (CAPN5 WT [3]): overcomes the inhibition
inhibition of CAPN1 (in words) (CAPN1 WT [4]): inhibits CAPN1
slowing of initial reaction rate of CAPN1 (CAPN1 WT [4]; 1 μM SNJ-1945, 50 μM EPLFAERK substrate): 100%

More lines, main results first:

proteolysis of peptide substrate by CAPN5-WT (fluorescence) (CAPN5 WT [2]): mild cleavage
Compound: CAPN5p.372-378: 7 amino acid peptide substrate near the CAPN5 autoproteolytic site (NRGGGCI)

slowing of initial reaction rate of CAPN5 (CAPN5 WT [3]; 10 μM Cyclic CAPN5 p.370-80, CAPN5p.370-80 substrate): 40%
effect of increasing substrate concentration on inhibition of CAPN5 (CAPN5 WT [3]): does not overcome inhibition
Compound: Cyclic CAPN5 p.370-80: CAPN5 p.370-80 modified by amide cyclization, second generation competitive cyclic inhibitor

proteolysis of peptide substrate by CAPN5-R243L (fluorescence) (CAPN5-R243L): greatest fluorescent intensity
Compound: KIEIVRKKPIFKKATV [PDGFB (155-170)]

proteolysis of peptide substrate by CAPN5-WT (fluorescence) (CAPN5 WT [2]): some proteolysis
Compound: CAPN14 peptide: peptide of the CAPN14 region homologous to the CAPN5 autoproteolysis site (RGFNSGGSQPNAETFWTNPQFR; listed as Homo sapiens)

proteolysis of peptide substrate by CAPN5-WT (fluorescence) (CAPN5 WT [2]): cleaved slower
proteolysis of peptide substrate by CAPN5-R243L (fluorescence) (CAPN5-R243L): greatest fluorescent intensity
Compound: RQNRGGGCINHKDTFFQNPQY (listed as Homo sapiens) [CAPN5-370-390]
substrate inhibition of CAPN5 cleavage (CAPN5 WT [2]; peptide length series near autoproteolytic site): does not show cleavage substrate inhibition
